The target in assay [1] is Human Epidermal Growth Factor Receptor 2 (human (endogenous in SKOV-3)) (UniProt P04626). The assay is described as follows: flow cytometry on cells.
In assay [2] the target is encapsulin (MSMEI_5672) from Mycobacterium smegmatis mc^2155 with C-terminal Strep-tag (Mycobacterium smegmatis mc^2155). The assay is described as follows: AF4-MALS.

As for “^ZHEREnc{eGFP}: encapsulin nanocompartment with ZHER_(2:342) affibody-decorated shell, loaded with eGFP (complex)”, the fold MFI elevation in assay [1] was 62 fold.
Turning to “eGFP with C-terminal encapsulin localization sequence”, the stoichiometry N (eGFP molecules per nanocompartment) in assay [2] was determined as 17.
In turn, “tandem cytosine deaminase with C-terminal encapsulin localization sequence (enzyme)” registered a stoichiometry N (tdCD molecules per nanocompartment) in assay [2] of 18.7.

The record behind these values is article doi:10.1101/2025.09.11.675605.
